Measured values published in US20240034813A1 (Janssen / Centocor, published 2024).

Key:
[1] = target: T1, recombinant cMet/HGFR with c-terminal His-tag, Cy5-labeled (UniProt P08581 25-932, limits assumed, Cy5 label (reacted with Cy5 Mono NHS Ester; sites not stated)); test: competitive TR-FRET (Eu-amivantamab/Cy5-c-MET), EC50 ratio vs Reference Material; Ex. 2 Formulation 2 (50 mM histidine), 1 month at 40 C
T1 construct: Commercial protein; also called Cy5-c-MET; Cy5-labeled c-MET antigen; not shown: C-terminal His-tag
Description: (§1) In this procedure, varying concentrations of unlabeled bispecific EGFR-cMet antibody sample compete with donor fluorophore (Europium (Eu) chelate) labeled bispecific EGFR-cMet antibody for binding to an acceptor fluorophore (Cy5)-labeled c-MET antigen. Excitation of the donor fluorophore results in a transfer of energy to the bound acceptor fluorophore (FRET process). The resultant FRET is detected by emission of light at 665 nm using a microplate reader capable of measuring time-resolved fluorescence. Sample dose response curves are compared to the Reference Material (RM).
(§2) c-MET Binding Materials and Methods. Certified commercial cMet, a recombinant cMet/HGFR with c-terminal His-tag is reacted with certified commercial Cy5 Mono NHS Ester to produce Cy5-labeled c-MET. Validated bispecific EGFR-cMet antibody is reacted with certified commercial Europium (Eu) chelate to produce Eu labeled bispecific EGFR-cMet antibody. […] Fluorescence is then measured by spectrophotometry at 665 nm, plotted against antibody concentration and analyzed by a four-parameter logistic model. The antibody concentration required to obtain half of the maximum fluorescence response (EC50) is determined for RM, assay control and samples. The potencies of assay control and samples are calculated based on the ratio of the sample (or control) and RM EC50 values and reported as a percentage activity relative to the RM.

[2] = target: T1, recombinant cMet/HGFR with c-terminal …; test: competitive TR-FRET (Eu-amivantamab/Cy5-c-MET), EC50 ratio vs Reference Material; Ex. 2 Formulation 3 (acetate), T0, 5 C table
Description: as §1, §2

[3] = target: T1, recombinant cMet/HGFR with c-terminal …; test: competitive TR-FRET (Eu-amivantamab/Cy5-c-MET), EC50 ratio vs Reference Material; Ex. 2 Formulation 1 (10 mM histidine), T0, 40 C table
Description: as §1, §2

[4] = target: T2, recombinant human EGFR/ErbB1/HER1 with C-terminal His tag, Cy5-labeled (human, UniProt P00533 25-645, Cy5 label (reacted with Cy5 Mono NHS Ester; sites not stated)); test: competitive TR-FRET (Eu-amivantamab/Cy5-EGFR), EC50 ratio vs Reference Material; Ex. 12 drug product with rHuPH20, 9 months at 5 C
T2 construct: Commercial protein; also called Cy5-EGFR; Cy5-labeled EGFR antigen; not shown: C-terminal His tag
Description: as §1, with “EGFR” for “c-MET”, “RM.” for “Reference Material (RM).”
as §2, with “EGFR” for “c-MET”, “EGFR,” for “cMet,”, “human EGFR/ErbB1/HER1” for “cMet/HGFR”, “C-terminal His tag” for “c-terminal His-tag”, “EGFR.” for “c-MET.”, “Eu-labeled” for “Eu labeled”

[5] = target: T2, recombinant human EGFR/ErbB1/HER1 with …; test: competitive TR-FRET (Eu-amivantamab/Cy5-EGFR), EC50 ratio vs Reference Material; Ex. 12 drug product with rHuPH20, 1 month at 40 C
Description: as §1, with “EGFR” for “c-MET”, “RM.” for “Reference Material (RM).”
as §2, with “EGFR” for “c-MET”, “EGFR,” for “cMet,”, “human EGFR/ErbB1/HER1” for “cMet/HGFR”, “C-terminal His tag” for “c-terminal His-tag”, “EGFR.” for “c-MET.”, “Eu-labeled” for “Eu labeled”

[6] = target: T1, recombinant cMet/HGFR with c-terminal …; test: competitive TR-FRET (Eu-amivantamab/Cy5-c-MET), EC50 ratio vs Reference Material; Ex. 3 acetate formulation, 6 months at 25 C then 5 freeze/thaw cycles
Description: as §1, §2

[7] = target: T2, recombinant human EGFR/ErbB1/HER1 with …; test: competitive TR-FRET (Eu-amivantamab/Cy5-EGFR), EC50 ratio vs Reference Material; Ex. 2 Formulation 2 (50 mM histidine), 3 months at 40 C
Description: as §1, with “EGFR” for “c-MET”, “RM.” for “Reference Material (RM).”
as §2, with “EGFR” for “c-MET”, “EGFR,” for “cMet,”, “human EGFR/ErbB1/HER1” for “cMet/HGFR”, “C-terminal His tag” for “c-terminal His-tag”, “EGFR.” for “c-MET.”, “Eu-labeled” for “Eu labeled”

[8] = target: T1, recombinant cMet/HGFR with c-terminal …; test: competitive TR-FRET (Eu-amivantamab/Cy5-c-MET), EC50 ratio vs Reference Material; Ex. 2 Formulation 3 (acetate), T0, 25 C table
Description: as §1, §2

B1: amivantamab (bispecific antibody, human IgG1, kappa)
heavy 1: not shown
light 1: not shown
heavy 2: not shown
light 2: DIQMTQSPSSVSASVGDRVTITCRASQGISNWLAWFQHKPGKAPKLLIYAASSLLSGVPSRFSGSGSGTDFTLTISSLQPEDFATYYCQQANSFPITFGQGTRLEIKRTVAAPSVFIFPPSDEQLKSGTASVVCLLNNFYPREAKVQWKVDNALQSGNSQESVTEQDSKDSTYSLSSTLTLSKADYEKHKVYACEVTHQGLSSPVTKSFNRGEC
notes: The samples tested were high concentration (160 mg/mL) formulations, fresh or stored or stressed; also called JNJ-61186372; bispecific EGFR-cMet antibody
cMET Binding % activity relative to RM [1]: 90%
cMET Binding % activity relative to RM [2]: 94%
cMET Binding % activity relative to RM [3]: 87%
EGFR Binding activity relative to Reference Material (%) [4]: 87%
EGFR Binding activity relative to Reference Material (%) [5]: 41%
cMET Binding % activity relative to RM [6]: 84%
EGFR Binding % activity relative to RM [7]: 38%
cMET Binding % activity relative to RM [8]: 94%
